Here are results for 7 molecules from patent publication US20220098295A1 (ALLERGAN, published 2022).

Changes are numbered by the printed parent chain.

B1: anti-PDGF BB HCAb P36F3 (antibody, IgG1, V domains shown)
VH: QVQLVESGGGLVQPGGSLRLSCAASGFTFSSYWMHWVRQAPGKGLVWVSRINSDGSSTSYADSVKGRFTISRDNAKNTLYLQMNSLRAEDTAVYYCAKDKGITMVRGVIHFDYWGQGTLVTVSS
notes: Heavy chain only antibody, no light chain; VH fused to IgG1 hinge and CH2/CH3; not shown: human IgG1 hinge region and CH2/CH3 regions (no CH1)
B2: anti-PDGF BB HCAb P36E10 (antibody, IgG1, V domains shown)
VH: QVQLLESGGGLVQPGGSLRLSCAASGFTFSSYAMSWVRQAPGKGLEWVSAISGSGGSTYYADSVKGRFTISRDNSKNTLYLQMNSLRAEDTAVYYCASNSGFFTLSGFIRYKFWGQGTLVTVSS
notes: as for B1
B3: anti-PDGF BB HCAb P36A4 (antibody, IgG1, V domains shown)
VH: B2 VH with A23P, S98R, S100N, F102I, T104M, L105F, S106R, F108V, F113S
notes: as for B1
B4: anti-PDGF BB HCAb P36E8 (antibody, IgG1, V domains shown)
VH: B2 VH with G101E, F102L, T104K, L105V, S106N, F108V, K112D
notes: as for B1
B5: anti-PDGF BB HCAb P36C12 (antibody, IgG1, V domains shown)
VH: B2 VH with S98R, G101E, F102I, T104M, L105V, S106K, F108V, R110Q, K112N, F113S
notes: Heavy chain only antibody, no light chain; VH fused to IgG1 hinge and CH2/CH3; It is printed in places as P36012, which looks like a misprint of P36C12; also called P36012; not shown: human IgG1 hinge region and CH2/CH3 regions (no CH1)
B6: anti-PDGF BB HCAb P36A3 (antibody, V domains shown)
VH: B2 VH with G101V, F103S, S106K, I109L, R110Q
notes: Heavy chain only antibody, no light chain; VH fused to IgG1 hinge and CH2/CH3 and made in CHO cells as fully human recombinant HCAb; It was captured by anti-human IgG Fc in the SPR assay; not shown: human IgG1 hinge region and CH2/CH3 regions (no CH1)
B7: P36F3 (bispecific antibody, part only; not given: linker, domain order, Fc, V domains shown, not shown: another chain or arm of the molecule; a dimerising Fc or GST; small tags and cut ends)
VH 1: B1 VH
VH 2: QVQLVESGGGLVQPGGSLRLSCAASGFTFSSYWMHWVRQAPGKGLVWVSRINSDGSSTSYADSVKGRFTISRDNAKNTLYLQMNSLRAEDTAVYYCAREGYSSGGQFDYWGQGTLVTVSS

The first test deals with T1, human PDGF-BB (R&D system, 220-BB) (human, UniProt P01127 82-190, biotinylated in the blocking ELISA of Example 4 (sites not given); unlabelled in the SPR assay).
T1 construct: Bought protein (R&D Systems), a homodimer of two B subunits; also called human biotinylated PDGF-BB
T1 sequence (P01127 82-190 limits assumed): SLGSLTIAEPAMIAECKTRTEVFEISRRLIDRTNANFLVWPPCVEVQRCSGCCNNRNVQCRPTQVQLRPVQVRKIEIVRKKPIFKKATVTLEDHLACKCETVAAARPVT
Kind of test: blocking ELISA: HCAb dilutions with 2 nM biotinylated PDGF-BB, binding to coated PDGFRβ-Fc. How it is done: Two micrograms per milliliter per well of PDGFRβ-Fc (R & D Systems) was coated on 96 well microtiter plates overnight at 4° C. In a separate plate, serial dilutions of anti-PDGF BB HCAb were incubated with 2 nM human biotinylated PDGF-BB (R&D Systems) for 1 hr. One hundred microliters of the anti-PDGF BB HCAb-PDGF-BB mix were applied to the PDGFRβ-Fc-coated microtiter plate for 1 hr. The detection antibody (anti-biotin HRP) was then added for 1 hr and the ELISA was developed with a chemiluminescent HRP substrate and read by an ELISA plate reader. Anti-PDGF BB HCAb blocked the binding of PDGF-BB to its receptor PDGFRβ and IC₅₀ of anti-PDGF BB HCAb blocking to PDGFRβ is summarized in Table 4.
For orientation: IC50 means the point on the concentration scale where inhibition reaches its midpoint. Turning to B1, the IC50 came to 1.71 nM.
Same read-out and setting: to B2 belongs 21.4 nM; to B3, 3.77 nM.
Turning to B4, the IC50 worked out at 5.52 nM.
Turning to B5, the IC50 is 1.07 nM.
Still for that read-out and setting: to B6 belongs 7.75 nM.

Another test addresses T1, human PDGF-BB (R&D system, 220-BB). The test can be described thus: Real-time sensorgram with response in nm (assay not given). Sample 'P36F3', association with rhPDGF BB at 25 - 500 nM. The column is headed kdis(1/s).
By koff is commonly meant a measure of how fast the partners let go of each other. Low readings indicate slow dissociation, high ones fast dissociation. In turn, B7 showed an off-rate constant (koff) of 1.1e-06 s⁻¹.

For the next test the target is unchanged. The test can be described thus: Real-time sensorgram with response in nm (assay not given). Sample 'P36F3', association with rhPDGF BB at 25 - 500 nM.
Usually Kd stands for a measure of binding affinity in units of concentration. Higher therefore signals weaker binding. By kon is commonly meant the rate constant with which the complex forms. Read a high kon as faster complex formation. As to B7, the Kd was determined as 0.0434 nM and the kon stood at 25300 M⁻¹ s⁻¹.

Another test shares this target. Kind of test: SPR (Biacore T200, 25 C), HCAb captured by anti-human IgG Fc, PDGF-BB 0.625-10 nM as analyte, 1:1 model. The method, then: (§1) Anti-human IgG Fc antibody was directly immobilized across CM5 biosensor chip (GE Healthcare) using a standard coupling kit (GE Healthcare, BR-1008-39) according to the manufacturer's instructions. Purified anti-PDGF-BB HCAb molecules were diluted in running buffer HBS-EPB (GE Healthcare, BR-1006-69) at 0.5 to 1.0 μg/ml and captured on the coupled across anti-human IgG Fc surface. A 2-fold serial dilution of human PDGF-BB (R&D system, 220-BB) range from 0.625 to 10 nM were injected over anti-PDGF-BB HCAb captured surface at a flow rate of 30 μl/min. Associating rates (Ka) and dissociation rates (Kd) were calculated based on 1:1 Langmuir binding model with BIAcore T200 evaluation software version 2.0 (GE Healthcare). The equilibrium dissociation constant (Kd) was determined by the ratio Koff/Kon.
A general note: SPR reads the build-up and loss of mass on a sensor chip optically.
In the case of B1, the on-rate (kon) is 988000 M⁻¹ s⁻¹.
With B2, the association rate constant (kon) is 42100 M⁻¹ s⁻¹.
Turning to B3, the association rate constant (kon) came to 654000 M⁻¹ s⁻¹.
Take B4: the on-rate constant (kon) amounted to 243000 M⁻¹ s⁻¹. Against the preceding molecule, the kon is about 2.7-fold lower.
For B5, the kon came to 1e+06 M⁻¹ s⁻¹.
The molecule B6 gave a kon of 219000 M⁻¹ s⁻¹.

The target is the same in the next test. The test can be described thus: SPR (Biacore T200, 25 C), HCAb captured by anti-human IgG Fc, PDGF-BB as analyte. The method, then:
as §1
The molecule B1 showed a Kd of 0.00883 nM and a koff of 8.73e-06 s⁻¹.
For the molecule B2, binding was characterised by a dissociation constant (Kd) of 0.455 nM and the koff was 1.92e-05 s⁻¹.
The molecule B3 yielded an equilibrium dissociation constant (Kd) of 0.00179 nM and a dissociation rate constant (koff) of 1.17e-06 s⁻¹.

The target is the same in another test. The test can be described thus: SPR (Biacore T200, 25 C), HCAb captured by anti-human IgG Fc, PDGF-BB as analyte; * over the limit of detection. The method, then: as §1
In the case of B4, the Kd was less than 0.00412 nM and the koff is less than 1e-06 s⁻¹.
In turn, B5 displayed a Kd of less than 0.001 nM and a dissociation rate constant (koff) of less than 1e-06 s⁻¹.
The molecule B6 gave a Kd of less than 0.00457 nM and a koff of less than 1e-06 s⁻¹.
